In patent US20200347136A1 (published 2020):
Bridge positions count the residues as written; N and C are the ends. Square brackets hold non-standard residues; d marks the D form. DBF = dibenzofuran moiety used in place of Pro-Pro

Columns and labels:
[1] = target: T1, CD58 expressed on OVCAR-3 and HFLS-RA cells (human, UniProt P19256 29-250); test: cell-based or functional assay
T1 sequence (looked up): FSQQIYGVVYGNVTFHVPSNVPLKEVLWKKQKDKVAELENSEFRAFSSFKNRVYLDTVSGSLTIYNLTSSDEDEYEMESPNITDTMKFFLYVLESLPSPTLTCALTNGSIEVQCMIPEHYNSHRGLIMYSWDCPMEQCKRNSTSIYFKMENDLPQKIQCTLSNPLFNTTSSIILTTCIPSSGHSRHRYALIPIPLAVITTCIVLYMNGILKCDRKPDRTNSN

[2] = target: CD58 expressed on sheep red blood cells (SRBC) (sheep); test: cell-based or functional assay

B1: SFTI-a (peptide)
peptide: cyclo(CKASAPPSCYDGDD)
modifications: disulfide 1-9
SMILES: C[C@@H]1NC(=O)[C@H](CCCCN)NC(=O)[C@@H]2CSSC[C@H](NC(=O)[C@H](CO)NC(=O)[C@@H]3CCCN3C(=O)[C@@H]3CCCN3C(=O)[C@H](C)NC(=O)[C@H](CO)NC1=O)C(=O)N[C@@H](Cc1ccc(O)cc1)C(=O)N[C@@H](CC(=O)O)C(=O)NCC(=O)N[C@@H](CC(=O)O)C(=O)N[C@@H](CC(=O)O)C(=O)N2
IC50, cell adhesion (PPI) inhibition [1]: 51 nM

cyclo(SIYD[dP]PDDIK) [Peptide 6]
IC50, inhibition of E-rosette formation [2]: 9.4 nM

B2: SFTI-a1 (peptide)
peptide: cyclo(CKSAPPSCAYDGDD)
modifications: disulfide 1-8
SMILES: C[C@@H]1NC(=O)[C@@H]2CSSC[C@H](NC(=O)[C@H](CC(=O)O)NC(=O)[C@H](CC(=O)O)NC(=O)CNC(=O)[C@H](CC(=O)O)NC(=O)[C@H](Cc3ccc(O)cc3)NC1=O)C(=O)N[C@@H](CCCCN)C(=O)N[C@@H](CO)C(=O)N[C@@H](C)C(=O)N1CCC[C@H]1C(=O)N1CCC[C@H]1C(=O)N[C@@H](CO)C(=O)N2
IC50, cell adhesion inhibition [1]: 22 nM

cyclo(CKSA[DBF]SCAYDGDD) (disulfide 1-7 (inferred)) [SFTI-DBF]
IC50, inhibition of adhesion between Jurkat and HFLS-RA cells [1]: 3 nM | IC50, inhibition of adhesion between Jurkat and OVCAR-3 cells [1]: 0.61 nM
